In test [1] the target is FITC-labeled CCT5 C-terminal degron peptide (human). Put plainly: fluorescence polarisation; direct binding; protein titrated from 4 µM in two-fold steps against 20 nM FITC peptide; 20 mM Tris pH 7.5, 150 mM NaCl, 5% glycerol, 0.5 mM TCEP, 0.01% Triton; 45 min at room temperature. On the technique in general: In fluorescence polarisation assays a small probe gives low polarisation when free and higher when bound to something large.

The target of test [2] is FITC-labeled MAGEA3 C-terminal degron peptide. The test is described as above.

As for “DDB1–DCAF12–DDA1 complex (from UniProt Q5T6F0 1-453; Q5T6F0 1-453; Q9BW61 1-102)”, the Kd in test [1] came to 130 nM; in test [2], 60 nM.

As usually defined, the Kd is the free concentration of one partner at which half of the binding sites on the other are occupied at equilibrium, for simple one-to-one binding. The low end stands for a tighter complex, the high end for a looser complex.

Values taken from PMC11044963, “Probing the CRL4^DCAF12 interactions with MAGEA3 and CCT5 di-Glu C-terminal degrons” (PNAS Nexus, 2024).
